# Measurements published in PMC8142927, “Destabilization of EpCAM dimer is associated with increased susceptibility towards cleavage by TACE” (PeerJ, 2021).
# Target: the molecule itself
# Assay: SEC-MALS; SEC with right- and low-angle laser light scattering detectors (SEC-RALLS/LALLS, OMNISEC), Superdex 200 Increase 10/300 GL, 150 μg of protein injected per run, 25 °C, 0.5 ml/min, 20 mM HEPES, pH 7.5, 100 mM NaCl; dimer to monomers
row,Protein,stoichiometry N
1,"EpEX (EpCAM extracellular part, residues 24-265, with mutated N-glycosylation sites N74Q, N111Q and N198Q) (domain or fragment, human, Epithelial cell adhesion molecule (EpCAM, CD326), human, extracellular part EpEX, residues 24-265, N-glycosylation sites mutated; residues translated from the XhoI scar, between K265 and the His6-tag; in solution it is a dimer in equilibrium with a small amount of monomer; also called wild type-like EpEX; non-glycosylated EpEX variant; source: Sf9 insect cells (baculovirus), culture supernatant, …) QEECVCENYKLAVNCFVNNNRQCQCTSVGAQNTVICSKLAAKCLVMKAEMQGSKLGRRAKPEGALQNNDGLYDPDCDESGLFKAKQCQGTSMCWCVNTAGVRRTDKDTEITCSERVRTYWIIIELKHKAREKPYDSKSLRTALQKEITTRYQLDPKFITSILYENNVITIDLVQQSSQKTQNDVDIADVAYYFEKDVKGESLFHSKKMDLTVNGEQLDLDPGQTLIYYVDEKAPEFSMQGLKLE",2
2,"EpEX L264C (domain or fragment, human, disulfide bond between the introduced cysteine residues (C264) of the two subunits, residues translated from the XhoI scar, between K265 and the His6-tag; Derived from m1; the protein is a constitutive dimer of two subunits linked by a disulfide; PDB 4mzv is the parent EpEX; also called disulfide-stabilized dimeric form; covalently stabilized EpEX dimer; source: Sf9 insect cells (baculovirus), culture supernatant, purified (His-tag column, ion exchange, SEC); not shown: His6, …) QEECVCENYKLAVNCFVNNNRQCQCTSVGAQNTVICSKLAAKCLVMKAEMQGSKLGRRAKPEGALQNNDGLYDPDCDESGLFKAKQCQGTSMCWCVNTAGVRRTDKDTEITCSERVRTYWIIIELKHKAREKPYDSKSLRTALQKEITTRYQLDPKFITSILYENNVITIDLVQQSSQKTQNDVDIADVAYYFEKDVKGESLFHSKKMDLTVNGEQLDLDPGQTLIYYVDEKAPEFSMQGCKLE",2
